This is an account of results in the supplement of paper PMC11865577.

Common to all, as to experiment: pull-down binding Z-score (relative to library population); higher = stronger binding
For series [1], the system named is TO-3-N3 (biotin conjugate). Particulars: RNA library: Library-2. The method in brief:
(§1)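 To score binding, a beads-only signal was subtracted, barcoded replicate probes were averaged with the highest and lowest dropped, and the value was converted to a Z-score using the library mean and standard deviation. The input was 1 μg of Cy5- or Cy3-end-labelled RNA library, heat-folded in phosphate/NaCl/KCl buffer and mixed for 60 min at 25 °C with streptavidin beads carrying 100 pmol of biotin-conjugated small molecule. Bound RNA was eluted in hot SDS and hybridised to a DNA barcode microarray at 55.5 °C for 20 h.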

Series [2] deals with TO-3-N3-2 (biotin conjugate). Particulars: RNA library: Library-2. The method in brief:
as §1

Series [3] deals with G-clamp-N3 (biotin conjugate). The settings on record: RNA library: Library-1 (pre-miRNA loops + repeats). The method in brief:
as §1

The subject of series [4] is TO-N3-2 (biotin conjugate). Particulars: RNA library: Library-2. Put shortly: as §1
Another series relates to TO-N3 (biotin conjugate). The settings on record: RNA library: Library-2. Put shortly: as §1

Turning to “UGCUCUGGUGACUGAGGACCGCCAGGCA [hsa-mir-4763]”, the “pull-down binding Z-score” value was -0.245 in series [1]; -0.197 in series [2]; -0.385 in series [3]; 0.367 in series [4]; -0.091 in the series on TO-N3 (biotin conjugate).
In the case of UAUUGCAAAGAUUUUCAAUA [hsa-mir-3915], the “pull-down binding Z-score” value is -0.611 in series [1]; -0.307 in series [2]; -0.191 in series [3]; -1.1 in series [4]; -0.988 with TO-N3 (biotin conjugate).
The like results for “ACUUAAGCACCAGGUAAAAUCUGGUGCUUAAGU [hsa-mir-4720]” were, in that order, -1.09, -0.698, 0.139, -1.69 and -1.56.
Consider “UAUGCCAUUAAAAGUAAUGGUAAA [hsa-mir-548aj-1]”, for which the “pull-down binding Z-score” value was -0.859 in series [1]; -0.508 in series [2]; -0.52 in series [3]; -1.2 in series [4]; -1.23 in the series with TO-N3 (biotin conjugate).
The matching figures for CAGUGACAUGCGUUUAAC [hsa-mir-4485]: 0.345, 0.112, -0.778, 0.0479 and 0.394.
The matching figures for UGUCUUGUGUCUGUAAGUAU [hsa-mir-1275]: -0.619, -0.189, -0.561, -0.00915 and -0.413.
The matching figures for “AGCCCUGUUGUUGUCAGAUAGUGU [hsa-mir-550a-2]”: 0.198, 0.21, -0.331, 0.179 and 0.216.
For UCCACACUGACAAGGGCCGUGGGG [hsa-mir-3191], the “pull-down binding Z-score” value in series [1] is 1.19; in series [2], 0.217; in series [3] it was -0.843; in series [4], 0.967; with TO-N3 (biotin conjugate) it was 1.19.
CAAACCGGACCUGAGCGUUUUG [hsa-mir-375]: the “pull-down binding Z-score” value in series [1] is 1.14; in series [2], 0.514; in series [3], -0.122; in series [4], 0.74; in the series on TO-N3 (biotin conjugate), 1.08.
The matching figures for “GCGGGGGUGGGGGCCUCGCCCUGCUUGGGCCCUCCCUGAC [hsa-mir-6821]”: 2.12, 1.75, 0.419, 2.31 and 2.47.
The like results for “CAUAUGUGUAACAGACAUACAUACAUACAUAUG [hsa-mir-3688-2]” were, in that order, -0.818, -0.463, -0.866, -1.31 and -1.02.
As to “GCAGAUAGUGGUCCUCUCCGUGCUACCGC [hsa-mir-106b]”, the “pull-down binding Z-score” value is -0.0735 in series [1]; -0.0832 in series [2]; -0.198 in series [3]; 1.16 in series [4]; 0.316 in the series on TO-N3 (biotin conjugate).
The matching figures for “CCUUCUCCUCUUUGCAGUGAUAAAGGAGG [hsa-mir-4460]”: -0.304, -0.351, -0.412, -0.549 and -0.61.
The matching figures for “AACACCCAUCCCAGGAUUGCUGAUGGGUGUU [hsa-mir-5705]”: -0.618, -0.428, -0.7, -0.282 and -0.668.
With AGUUGUGAAUUCUCAAAACACCU [hsa-mir-660], the “pull-down binding Z-score” value is -0.401 in series [1]; -0.349 in series [2]; -0.342 in series [3]; -0.129 in series [4]; -0.417 in the series on TO-N3 (biotin conjugate).
On to “UGAGCAGGGUCCACACCAAGUCGUGUUCA [hsa-mir-27a]”, for which the “pull-down binding Z-score” value in series [1] is 0.869; in series [2] it was 0.465; in series [3], -0.575; in series [4], 1.09; in the series with TO-N3 (biotin conjugate), 1.14.
The like results for “AUUUGCCAUCACCUUUACCUUUAAUGGCAAAA [hsa-mir-548av]” were, in that order, 0.0312, -0.205, -0.985, -0.906 and -0.188.
The matching figures for CAACAGUUCUGUAGCGCAAUUGUG [hsa-mir-203a]: 0.0356, 0.0351, 0.267, 1.07 and 0.622.
The matching figures for CCAUGGGGGCCUUGCUGUGU [hsa-mir-6808]: 1.05, 0.335, 1.56, 1.04 and 1.28.
In the case of “UCAGACACAUCAGAUCCCUUAUCUGUAAAAUGGGCAUGA [hsa-mir-640]”, the “pull-down binding Z-score” value in series [1] is -0.19; in series [2], -0.013; in series [3], 0.152; in series [4], 0.521; in the series with TO-N3 (biotin conjugate), 0.00353.
In the case of “AGAAUUACUUAUCUGAGCCAAAGUAAUUCA [hsa-mir-1297]”, the “pull-down binding Z-score” value is 0.332 in series [1]; 0.225 in series [2]; -0.86 in series [3]; -0.336 in series [4]; 0.386 in the series on TO-N3 (biotin conjugate).
Regarding GGUGGUUGUGGGAGUCACU [hsa-mir-4418], the “pull-down binding Z-score” value is 1.58 in series [1]; 1.89 in series [2]; -0.575 in series [3]; 1.93 in series [4]; 2.18 with TO-N3 (biotin conjugate).
Take CCCCCAAUUAAAGUAGAUUGGGGG [hsa-mir-3153]: the “pull-down binding Z-score” value in series [1] was -0.415; in series [2], -0.696; in series [3], 0.917; in series [4], -1.29; with TO-N3 (biotin conjugate), -0.725.
Turning to “AUCAGUUCUCAUUUUACACACUGGC [hsa-mir-24-1]”, the “pull-down binding Z-score” value is -0.563 in series [1]; -0.0568 in series [2]; 0.0425 in series [3]; -0.282 in series [4]; -0.54 in the series on TO-N3 (biotin conjugate).
The matching figures for GCUUCUCUUUCUCACCAGCAGC [hsa-mir-4467]: -0.543, 0.152, -1.87, -0.0165 and -0.461.
For the sequence GUUGCUUAGAUUACAUGUAAC [hsa-mir-890], the “pull-down binding Z-score” value in series [1] is -0.632; in series [2] it was -0.214; in series [3], -0.226; in series [4], 0.419; in the series with TO-N3 (biotin conjugate), -0.579.
For “GGAGGCCCCGCCCUGCUGCCGACCCUGUGGAGCGGAGGGUGAAGCCUCC [hsa-mir-3180-5]”, the “pull-down binding Z-score” value in series [1] is 0.326; in series [2], 0.0715; in series [3], 0.844; in series [4], 1.98; in the series on TO-N3 (biotin conjugate) it was 1.1.
The matching figures for CUUUGCUACUGCUC [hsa-mir-6072]: -0.202, -0.0975, -0.385, 0.112 and -0.000442.
As for “UGAGUACAUUAUUUAUGAUUAAUCA [hsa-mir-376a-1]”, the “pull-down binding Z-score” value in series [1] was -0.874; in series [2] it was -0.0505; in series [3], -1.62; in series [4], -0.847; in the series on TO-N3 (biotin conjugate), -0.978.
